From patent US20120045773A1, “CELL ADHESION INHIBITOR AND APPLICATIONS THEREOF” (University of Miyazaki, priority 2009, published 2012) come the findings set out here.

In data set [1] the test system is AML1 cell line. Nature of the data set: Drug resistance assay by WST method with or without osteoblast cell in the medium. The format is cell-based, human. The procedure: Effect of the presence of osteoblast cell on the drug resistance of AML1 cell line derived from human acute myelocytic leukemia (AML) was examined.
Specifically, by WST method, in which water-soluble formazan was produced, viability of AML1 cell line was evaluated under the presence of VP16 (5 μM), a kind of etoposide-based anticancer drug, between the cases of presence and absence of osteoblast cell in culture medium. It should be noted that AML1 cell line is fixed to medium plate through osteoblast cell when the osteoblast cell exists in the medium.
In addition, effect of the presence of the osteoblast cell on the drug resistance of AML1 cell line was examined, when Ara-C, a kind of anticancer drug of […] was used in place of VP16 as the anticancer drug. Specifically, the drug resistance assay was carried out by WST method using the same procedures as the above-mentioned method excepting that Ara-C (1 μg/mL) was used in place of VP16 as the anticancer drug.
Drug resistance assay by WST method was carried out by the same procedures as the above-mentioned Reference Example 5 (in the presence of Ara-C) using each of the above-established AML1 (shEVI1) cell and AML1 (shLuc) cell in place of AML1 cell line.

The test system of data set [2] is AML1 cell line. In words: Cellular adhesiveness assay of AML1 cell line on matrigel-coated 96-well plate (Cell counting kit 8). The format is cell-based, human. To be noted: AML1(shITGB4) relative to AML1(shLuc); FIG. 8. The procedure: Cellular adhesiveness was evaluated for the above-established AML1(shEVI1) (triplicate) and AML1(shLuc).
(§1) Specifically, 100 μL of 40 times-diluted growth factor reduced matrigel (produced by BD Biosciences) with RPMI1640/10% FCS was added to each well of a 96-well plate, incubated at 4° C. for 6 hours, and washed twice with PBS. The above-mentioned cell was added to each of the wells at 10000 cells/100 μL. After that, the cell was incubated at 37° C. for 2 hours and washed three times with PBS. After that, 90 μL of RPMI1640/10% FCS and 10 μL of Cell counting kit 8 (produced by DOJINDO Laboratories) were added to each well, incubated at 37° C. for 30 minutes and measured at wavelength of 450 nm by a spectrophotometer.
Cellular adhesiveness was evaluated for the established above-mentioned AML1(shITGB4) and AML1(shLuc) by the same method as the above-mentioned Example 1-2.
In general terms: Tetrazolium dyes change colour on reduction, which living cells bring about.

Another data set concerns ITGB4 gene. In words: ITGB4 gene expression by PCR in AML1 cell line transfected with shITGB4. To be noted: AML1(shITGB4) compared with AML1(shLuc); FIG. 9. The format is cell-based, human. An excerpt:
ITGB4 expression-inhibited AML1 cell line (hereinafter also called “AML1(shITGB4)”) was established by the transfection of shRNA having an activity of cleaving mRNA of ITGB4 gene (hereinafter also called “shITGB4”) into AML1 cell line by the same method as the above-mentioned Example 2-1. It should be noted that the base sequences of the used shITGB4 were as follows.
Further, expression of ITGB4 gene in AML1 (shITGB4) was confirmed by the same method as the above-mentioned Example 1-1. As a result, as shown in the results of PCR agarose gel electrophoresis in FIG. 9, expression of ITGB4 gene was suppressed in AML1(shITGB4) compared with AML1(shLuc).

In data set [3] the test system is EVI1 gene. Nature of the data set: EVI1 gene expression by PCR and agarose gel electrophoresis in AML1 cells transduced with shEVI1. The format is cell-based, human. An excerpt:
(§2) EVI1 expression-inhibited AML1 cell line (hereinafter, also called “AML1 (shEVI1)”) was established by the transfection of shEVI1, which is a short hairpin RNA (shRNA) having cleavage activity of mRNA of EVI1 gene, into the AML1 cell line, which was originated from human acute myelocytic leukemia (AML).
Specifically, at first, shEVI1 (sense strand: […] UUG (SEQ ID No: 7) and antisense strand: […] GAGA (SEQ ID No: 8), which had been disclosed in Oncogene, 2006 Jun. 15; 25 (25): 3565-75), were inserted into pSIREN-RetroQ-ZsGreen vector of RNAi-Ready pSIREN-RetroQ-ZsGreen (produced by Clonetech Laboratories, Inc.) at BamH1-EcoR1 site to prepare a shEVI1 retrovector. […] It should be noted that as a control cell, the cell (hereinafter, also called “AML1 (shLuc)”) was established by transfecting a control vector (shLuc) attached to RNAi-Ready pSIREN-RetroQ-ZsGreen (produced by Clonetech Laboratories, Inc.) by the same method.
Each cell cultured steadily of the established above mentioned AML1(shEVI1) and AML1(shLuc) was recovered by centrifugation, the medium was removed, and 1 ml of Trizol™ (produced by Invitrogen Corp.) was added. […] The resultant RNA was dissolved in RNase-free water, the amount of RNA was measured by spectrophotometer at wavelength of 260 nm, and 1 μg of the RNA was transformed to cDNA with reverse transcriptase (superscript 3, produced by Invitrogen Corp.). […]

Data set [4] deals with various integrin families including ITGA6 gene and ITGB4 gene. Nature of the data set: Expression of integrin family and VE cadherin genes by PCR and agarose gel electrophoresis in AML1 cells transduced with shEVI1. The format is cell-based, human.
Excerpt: as §2
Specifically, at first, shEVI1 (sense strand: […] UUG (SEQ ID No: 7) and antisense strand: […] GAGA (SEQ ID No: 8), which had been disclosed in Oncogene, 2006 Jun. 15; 25 (25): 3565-75), were inserted into pSIREN-RetroQ-ZsGreen vector of RNAi-Ready pSIREN-RetroQ-ZsGreen (produced by Clonetech Laboratories, Inc.) at BamH1-EcoR1 site to prepare a shEVI1 retrovector. After that, 10 μg of the shEVI1 retrovector and 10 μg of p10A1 packaging vector (produced by Clonetech Laboratories, Inc.) were transduced to 293T cell using Hylimax liposome reagent (produced by DOJINDO Laboratories) to prepare a retrovirus containing shEVI1. After that, AML1 (shEVI1) was established by infecting the obtained retrovirus into 10^5 of AML1 cells. It should be noted that as a control cell, the cell (hereinafter, also called “AML1 (shLuc)”) was established by transfecting a control vector (shLuc) attached to RNAi-Ready pSIREN-RetroQ-ZsGreen (produced by Clonetech Laboratories, Inc.) by the same method.
Each cell cultured steadily of the established above mentioned AML1(shEVI1) and AML1(shLuc) was recovered by centrifugation, the medium was removed, and 1 ml of Trizol™ (produced by Invitrogen Corp.) was added. After that, 500 μL of chloroform was added, separated by centrifugation at 15000 rpm for 15 minutes, the upper layer was transferred to another tube, 500 μL of 2-propanol was added, separated by centrifugation at 15000 rpm for 10 minutes, and washed with 80% ethanol. The resultant RNA was dissolved in RNase-free water, the amount of RNA was measured by spectrophotometer at wavelength of 260 nm, and 1 μg of the RNA was transformed to cDNA with reverse transcriptase (superscript 3, produced by Invitrogen Corp.).
Using each of the resultant cDNA as a template, the cDNA was amplified by PCR method, and expression level of the genes was confirmed by agarose gel electrophoresis. Specifically, TaKaRa Extaq (produced by TaKaRaBio Inc.) was used as the polymerase, and PCR Thermal Cycler DICE (produced by TaKaRa Bio Inc.) was used as the PCR equipment. In addition, each cDNA was corrected by β-actin before the amplification by PCR. Base sequences of the primers used in the PCR were as follows;
The ones disclosed in Journal of Biomedical Science (2005)12:803-813.

For data set [5], the system named is EVI1 gene. Nature of the data set: EVI1 gene expression by PCR in HNT34 cell line transfected with shEVI1. The format is cell-based, human. To be noted: HNT34(shEVI1) vs HNT34(shLuc); transfection with Nucleofector; FIG. 5. An excerpt: (§3) EVI1 expression-inhibited HNT34 cell line (hereinafter, also called “HNT34(shEVI1)”) was established by the transfection of shEVI1, which was used in the above-mentioned Example 1-1, using Nucleofector (produced by Amaxa Biosystems), a gene transfection system, into HNT34 cell line derived from human. In the same way, the cell line transfected with shLuc (hereinafter, also called “HNT34 (shLuc)”) was established. For these cell lines, expression of EVI1 gene and genes of various integrin families were confirmed by the same method as in the Example 1.

For data set [6], the system named is genes of various integrin families. Nature of the data set: Expression of integrin family genes by PCR in HNT34 cell line transfected with shEVI1. In kind it is cell-based, human. To be noted: HNT34(shEVI1) vs HNT34(shLuc); transfection with Nucleofector; FIG. 5.
Excerpt: as §3

The subject of data set [7] is HNT34 cell line. Nature of the data set: Cellular adhesiveness assay of HNT34 cell line. To be noted: HNT34(shEVI1) compared with HNT34(shLuc); FIG. 6. The format is cell-based, human. As to the method: as §1
The cellular adhesiveness was evaluated for the above-mentioned established HNT34(shEVI1) and HNT34(shLuc) by the same method as the above-mentioned Example 1-2.

For data set [8], the system named is HNT34 cell line. In words: Cellular proliferative ability assay of HNT34 cell line (Cell counting kit 8). In kind it is cell-based, human. To be noted: HNT34(shEVI1) vs HNT34(shLuc) control cell line; FIG. 7. As to the method:
Cellular proliferative ability was evaluated for the above-mentioned established HNT34(shEVI1) and HNT34(shLuc).
Specifically, cells diluted with RPMI1640/10% FCS were added to each well of a 96-well plate at 1000 cells/100 μL. After that, the cell suspension was incubated at 37° C. for an appropriate time, each 10 μL of Cell counting kit 8 (produced by DOJINDO Laboratories) was added, incubated at 37° C. for 30 minutes, and measurement was carried out at wavelength of 450 nm using a spectrophotometer.

Another data set deals with AML1 cell. In words: Accumulation of AML1 cells in thighbone bone marrow of transplanted NOG mouse (FACS). To be noted: 6 million AML1(shEVI1) cells injected into NOG mouse, bone marrow recovered 1 month after, control AML1(shLuc) printed as (330), FIG. 25. In kind it is in vivo. As to the method: The above-established AML1(shEVI1) cell was transplanted into NOG Mouse™, and accumulation of the AML1(shEVI1) cell into the murine thighbone was examined after the transplantation. Here, NOG mouse is a severe immunodeficient mouse suitable for the preparation of humanized model mouse that is available from the Central Institute for Experimental Animals.
Specifically, 6 million of each of the AML1 (shLuc) cell and the AML1 (shEVI1) cell was injected into NOG mouse through venous artery, and bone marrow of the thighbone was recovered 1 month after. After that, a graph representing the fluorescence intensity in the horizontal axis was prepared by FACS, and analysis was made how frequently cells were distributed from low intensity (peak near to 0) to high fluorescence intensity.

[9] abbreviates: AML1(shEVI1) compared with AML1(shLuc), FIG. 1.
The mark [10] stands for this setting: triplicated experiment for AML1(shEVI1), AML1 cell not administered with shLuc or shEVI1 added as a control, FIG. 2.

Regarding `Nc1ccn([C@@H]2O[C@H](CO)[C@@H](O)[C@@H]2O)c(=O)n1` [Ara-C], the “viability of AML1 cell line in the presence of the drug, osteoblast cell in the medium compared with none” value in the data set on AML1 cell line [1] (Ara-C (1 μg/mL), FIG. 19) was “increase significantly”.
On to `COc1cc([C@@H]2c3cc4c(cc3[C@@H](O[C@@H]3O[C@@H]5CO[C@@H](C)O[C@H]5[C@H](O)[C@H]3O)[C@H]3COC(=O)[C@H]23)OCO4)cc(OC)c1O` [VP16], for which, in the data set on AML1 cell line [1] (VP16 (5 μM), FIG. 18), the “viability of AML1 cell line in the presence of the drug, osteoblast cell in the medium compared with none” value is given as “increase significantly”.

B1: shITGB4: shRNA having an activity of cleaving mRNA of ITGB4 gene; SEQ ID No: 13 and SEQ ID No: 14 (nucleic acid)
chain 1: GAUCUCCGAGUUGCGUGGGGUGUGUCUUCAAGAGAGACACACUCCGUGCAGCUCUUUUUG
chain 2: AAUUCAAAAAGAGCUGCACGGAGUGUGUCUCUCUUGAAGACACACCCCACGCAACUCGGA
As for B1, the “cellular adhesiveness (ratio of the number of adhered cells to the number of total cells)” value with AML1 cell line [2] was “decrease nearly to zero”. The “expression of ITGB4 gene” value with ITGB4 gene is given as “suppressed”.

B2: shEVI1: short hairpin RNA (shRNA) having cleavage activity of mRNA of EVI1 gene; SEQ ID No: 7 and SEQ ID No: 8 (nucleic acid)
chain 1: GAUCUCUCUAAGGCUGAACUAGCAGUUCAAGAGACUGCUAGUUCAGCCUUAGAUUUUUUG
chain 2: AAUUCAAAAAAUCUAAGGCUGAACUAGCAGUCUCUUGAACUGCUAGUUCAGCCUUAGAGA
With B2, the EVI1 gene expression result in the data set on EVI1 gene [3] (setting [9]) is listed as “inhibited”. Moreover, the EVI1 gene expression result with EVI1 gene [3] (setting [10]) is given as “inhibition”. Besides, in data set [4] (setting [9]), the “expression of VE cadoherin gene” value is listed as “inhibited”; the “gene expressions of various integrin families including ITGA6 gene and ITGB4 gene” value is reported as “inhibition”. Further, in data set [4] (setting [10]), the “expression of VE cadherin genes” value was “inhibition” and the “expression of various integrin families” value is “inhibition”. Moreover, the “expression of the EVI1 gene” value in the data set on EVI1 gene [5] is on record as “inhibited”. For the same molecule, the “expression of genes of various integrin families” value in data set [6] is listed as “inhibited”. Further, in the data set on HNT34 cell line [7], the “decrease of cellular adhesiveness (ratio of the number of adhered cells to the number of total cells)” value is “about 76%”. For the same molecule, the cellular proliferation ability entry with HNT34 cell line [8] is recorded as “no significant difference”. The “drug resistance to Ara-C gained by the existence of osteoblast” value with AML1 cell line [1] (AML1(shEVI1) vs AML1(shLuc), in the presence of Ara-C, FIG. 20) was “disappeared”. The “abundance rate of transplanted cells in bone marrow of the thighbone” value in the data set on AML1 cell is on record as 9.5%.
